Source: patent US20250123292

Target: recombinant human endorepellin/perlecan (R&Dsystems, catalog Number: 2364-ER-050), intact, P98160

B1: Recombinant Human BMP-1/PCP (R&Dsystems, catalog Number: 1927-ZN) (protein)
chain: AATSRPERVWPDGVIPFVIGGNFTGSQRAVFRQAMRHWEKHTCVTFLERTDEDSYIVFTYRPCGCCSYVGRRGGGPQAISIGKNCDKFGIVVHELGHVVGFWHEHTRPDRDRHVSIVRENIQPGQEYNFLKMEPQEVESLGETYDFDSIMHYARNTFSRGIFLDTIVPKYEVNGVKPPIGQRTRLSKGDIAQARKLYKCPACGETLQDSTGNFSSPEYPNGYSAHMHCVWRISVTPGEKIILNFTSLDLYRSRLCWYDYVEVRDGFWRKAPLRGRFCGSKLPEPIVSTDSRLWVEFRSSSNWVGKGFFAVYEAICGGDVKKDYGHIQSPNYPDDYRPSKVCIWRIQVSEGFHVGLTFQSFEIERHDSCAYDYLEVRDGHSESSTLIGRYCGYEKPDDIKSTSSRLWLKFVSDGSINKAGFAVNFFKEVDECSRPNRGGCEQRCLNTLGSYKCSCDPGYELAPDKRRCEAACGGFLTKLNGSITSPGWPKEYPPNKNCIWQLVAPTQYRISLQFDFFETEGNDVCKYDFVEVRSGLTADSKLHGKFCGSEKPEVITSQYNNMRVEFKSDNTVSKKGFKAHFFSEKRPALQPPRGRPHQLKFRVQKRNRTPQ
measured levels of LG3 (LG3 ELISA) after in vitro cleavage, 24 hours at 37 C: LG3 was detected only in the endorepellin with BMP-1 sample
